Measured values: article PMC4100105, “A Novel VHH Antibody Targeting the B Cell-Activating Factor for B-Cell Lymphoma” (International Journal of Molecular Sciences, 2014)

Tests used:
[1] = molecular target: T1, B cell-activating factor (BAFF) (UniProt Q9Y275, biotin (NHS-LC-Biotin, 3:1 molar ratio of biotin to protein) in the BLI assay; not biotinylated when coated on ELISA plates)
[2] = molecular target: T1, B cell-activating factor (BAFF); assay: BLI; Octet RED; biotinylated BAFF (20 ug/mL) loaded on streptavidin biosensors; sdAbs 1.25-20 uM as analyte; PBST (PBS pH 7.4, 0.1% BSA, 0.02% Tween-20); room temperature; association 300 s, dissociation 1500 s; global 1:1 fit; 'relative affinity'; conditions: both partners purified
[3] = molecular target: T1, B cell-activating factor (BAFF); assay: cell-based or functional assay
[4] = molecular target: T1, B cell-activating factor (BAFF); assay: ELISA; competition ELISA; BAFF (10 ug/mL) coated; sdAb (0-100 ug/mL) mixed with TACI (10 ug/mL), 2 h at 37 C; bound TACI detected with HRP goat anti-human IgG; conditions: both partners purified
[5] = molecular target: T1, B cell-activating factor (BAFF); assay: ELISA; competition ELISA; BAFF (10 ug/mL) coated; sdAb (0-500 ug/mL) mixed with BCMA (50 ug/mL), 2 h at 37 C; bound BCMA detected with HRP goat anti-human IgG; conditions: both partners purified

Row | binding result [1] | Kd [2] [nM] | koff [2] [s⁻¹] | kon [2] [M⁻¹ s⁻¹] | Binder | further results
1 | binds |  |  |  | baffb11 (VHH) VHH: HVQLVDSGGGLVQAGGSLRLSCAASGRTFSSYAMGWFRQAPGKEREFVAAISWSGGRTYYADSVKGRFTISRNNAKNTVYLQMNNLKPEDAAVYYCAARSRASLSGTPLSSPSYYRYWGQGTQVTVSS | 
2 |  | 3180 | 0.0182 | 5710 | anti-BAFF52 (VHH, Soluble sdAb of about 15 kDa from an immune alpaca library; also called clone 52; anti-BAFF52 sdAb; source: E. coli TG1, periplasm, vector pSJF2, purified (Ni-NTA)) VHH: HVQLVDSGGGLVQAGGSLRLSCAASGRSFKNYHMGWFRQAPGKEREFVAAINGRGSRTKYADSVKGRFTISRDNAERTVRLEMNSLKPEDTAVYYCAAGGPEFYRGRLEDYAYWGPGTQVTVSS | 
3 | binds |  |  |  | baff41 (VHH) VHH: HVQLVDSGGGLVQPGGSLRLSCTASGRTFRDYAMGWFRQAPGKEREFVAAIIGRGASTQYADFVKGRFTISRDNAKNTVYLQMNSLRPEDTAVYYCHAYDPRRNGDYWGQGTQVTVSS | 
4 | binds |  |  |  | baffb2 (VHH) VHH: HVQLVDSGGGLVQAGGSLRLSCAASGRSFRRYAMAWFRQTPGKEREFVAAISRSGGSTSYADSVKGRFTISRDNVKNTVYLQMNSLKPEDTAIYYCAADRWGSPTDLRLPRELDYWGQGTHVTVSS | 
5 | binds |  |  |  | baffc6 (VHH) VHH: HVQLVDSGGGLVQAGGSLRLSCAAPRNTFSRYAMAWYRQAPGKRRESVASISSGGISHYTDSVKGRFTISRDNAKNTVYLQMNSLKPEDSAVYYCAASREWGLLRHRPGYWGQGTQVTVSS | 
6 | binds |  |  |  | baffh1 (VHH) VHH: HVQLVDSGGGSVQTGDSLTLSCVQSGRTFRSYAMAWYRQAPGKERELVARISSGYSTNYLDSVKGRFTISRDNDKNTFYLQMNSLRPEDTAVYYCNSALNGRLPGRHWGQGTQVTVSS | 
7 |  | 319 | 0.000729 | 2290 | anti-BAFF64 (VHH, Soluble sdAb of about 15 kDa from an immune alpaca library; also called clone 64; anti-BAFF64 sdAb; source: E. coli TG1, periplasm, vector pSJF2, purified (Ni-NTA)) VHH: QVQLVDSGGGLVQAGGSLRLSCVASGALISRRGMGWYRQAPGRQRELVAGISSDGTTNYAQSVEGRFTISRDNAKRSVYLQMNSLKPEDTAVYYCHARTRWKSYWGQGTQVTVSS | inhibitory ratio of BAFF-induced (750 ng/mL) Raji cell proliferation, CCK-8 assay, sdAb 0-100 ug/mL; value at 100 ug/mL [3]: 55%; inhibition ratio of TACI binding to BAFF at 100 ug/mL sdAb [4]: 31%
8 |  | 823 | 0.00239 | 2900 | anti-BAFFG3 (VHH, Soluble sdAb of about 15 kDa from an immune alpaca library; also called clone G3; anti-BAFFG3 sdAb; source: E. coli TG1, periplasm, vector pSJF2, purified (Ni-NTA)) VHH: HVQLVDSGGGLVAGGSLRLSCAASGRTFSMSAVAWFRQAPGKEREFVAAISKSSISTYYADSVKGRFTISRDNARNTVNLQMNSLKPEDTAVYYCNSALNGRLPGRHWGQGTQVTVSS | inhibition ratio of BCMA binding to BAFF at 500 ug/mL sdAb [5]: 33%
9 | binds |  |  |  | bafff4 (VHH) VHH: HVQLVDSGGGLVQAGGSLRLSCTVSGRTSRYAMAWFRQAPGKGREFVAGVNRSGGRPNYSNSVKGRFTISRDNAKNTVYLQMNGLKPEDTAVYYCAAEDRISQSYEYWGQGTQVTVSS | 
